Measurements: the nanobody polyreactivity screen of Harvey et al. (2022)

Assay: yeast display, Sf9 membrane polyspecificity reagent, FACS + sequencing; frameworks hold sequencing errors
Method in brief: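 Polyreactivity labels are assigned by the sorting gate from which each nanobody was recovered. The gates were low and high (top ~1%), set on anti-HA fluorescence for expression and streptavidin fluorescence for reagent binding. Before sorting, galactose-induced (36–48 hours) yeast display cells were stained for 1 hour at 4 °C with 10% biotinylated, detergent-solubilized Sf9 membrane reagent.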

Sequence | polyreactivity (PSR sort gate)
QVQLVESGGGLVQAGGSLRLSCAASGFDFSYYDMGWYRQAPGKEREFVASIDWSGGSTYYADSVKGRFTISRDNAKNTDYLQMNSLKAEATAVYYCAAELDYFPGYDYWGQGTQVTVSS | low polyreactivity
QVQLVESGGGLVQAGGSLRLSCAASGFFLGQYTMGWYRQAPGKERELVAAISSSGSTNYADSVKGRFTISRDNAKNTVYLQMNSLKPEDTAVYYCSIAGIRHVTSKFKGYHFGYWGQGTQVTVSS | low polyreactivity
QVQLVESGGGLVQAGGSLRLSCAASGFHFGSYAMGWNRQAPGKERELVASISSAGRTYYADSVKGRFTISRDNAKNTVYSQMNSLKPEDTAVYYCAAESGYPVYTYVSSGDYWGQGTQVTVSS | low polyreactivity
QVQLVESGGGLVQAGGSLRLSCAASGFICPIYPMGWYRQAPGKERELVAGISWRGGSTYYADSVKGRFTISRDKATYTVYLQMNSLKPEDTAVYYCAVVVQGYSTYYYWGQGTQVTVSS | high polyreactivity
QVQLVESGGGLVQAGGSLRLSCAASGFICVHKAMGWYREAPGNERELVAAITWSGGRTYYADSVKGRCTISRDKAKNTVYLQKNSLKPEDTAVYYCATTVNSHVPGVSKYYYWGHGTQVTVSS | high polyreactivity
QVQLVESGGGLVQAGGSLRLSCAASGFIFAAYAMGWYRQAPGKERELVAAINRSGSSTYYADSVKGRFTISRDNAKNTVYLQMNSLKPEDTAVYYCAARVVHQSRYSYEYWGQGTQVTVSS | high polyreactivity
QVQLVESGGGLVQAGGSLRLSCAASGFIFADNTMGWNRQAPGKERELVAAISRRGGSTYYADSVKGRFTISRDNAKNTVYLQMNSLKPEDTAVYYCAARPFVKHDYWGQGTQVTVSS | high polyreactivity
QVQLVESGGGLVQAGGSLRLSCAASGFIFADYDMGWYRQAPGKERELVDAISWSGGTTYYADSVKGRFTISRDNAKHTVYLQMNSLKPEDTAVYYCAAYWWAVYSVVTGARYVYWGQGTQVTLSS | high polyreactivity
QVQLVESGGGLVQAGGSLRLSCAASGFIFAEYAMGWYRQAPGKERELVAAITWSGVTTYYADSVKGRFTISRDNAKNTVYLLMNSLKPEDTAVYYCAAGRTRRKFDYWGQGTQVTVSS | low polyreactivity
QVQLVESGGGLVQAGGSLRLSCAASGFIFAEYAMGWYRQAPGKERELVVAIDVGGGSTYYADSVKGRFTISGDNAKNTVYLQMNSLKPEDTAVYYCAATQYGYWVPYQGFDYWGQGTQVTVSS | low polyreactivity
QVQLVESGGGLVQAGGSLRLSCAASGFIFAFYAMGRYRQAPGKERELVASISRRSGSTYYADSVKGRFTISRDNAKNTVYLQMNSLKPEDTALYYCAADRPPCETYGYDYWGQGTQVTVSS | low polyreactivity
QVQLVESGGGLVQAGGSLRLSCAASGFIFAQNTMGWYRQAPGKERELVAAITRRGGSTYYADSVKGRFTISRDNAKNTVYLQMNSLKPEDTAVYYCNVAFRSYYTSSLLDYWGQGTQVTVSS | high polyreactivity
QVQLVESGGGLVQAGGSLRLSCAASGFIFARNTMGWYRQSPGKERELVAAITKSGGSTYYADSVKGRFTISRDNAKNTVYLQMNSLKPEDTAVYYCAKDPVELSPADWRADYDYWGQGTQVTVSS | low polyreactivity
QVQLVESGGGLVQAGGSLRLSCAASGFIFASNTMGWYRQAPGKERELVAAISSRGGRTYYAASVKGRFTISRDNAKNTVYLQMNSLKPEDTAVYYCAAVQKGDSTLLRTKGGYWGQGTQVTVSS | high polyreactivity
QVQLVESGGGLVQAGGSLRLSCAASGFIFASYTLGWYRQAPGKERELVAAISRAGSTYYADSVKGRFTISRDNAKNTVYLQMNSLKPEDTAVYYCNAVSWRTSRYDYWGQGTQVTVSS | high polyreactivity
QVQLVESGGGLVQAGGSLRLSCAASGFIFAWNAMGWYRLAPGKERELVAAITSAGSTKYADSVKGRFTISRDNAKNTVYLQMNSLKPEDTAVYYCAAARFRIYCGQGTQVTVSS | high polyreactivity

Sequence | polyreactivity (PSR sort gate)
QVQLVESGGGLVQAGGSLRLSCAASGFIFAWYAMGWYRQAPGKERELVASISVSDGSTYYADSVKGRFTISRDNAKNTVYLQMNSLKPEDTAVYYCAADRFYDQAYDYWGQGTQVTVSS | low polyreactivity
QVQLVESGGGLVQAGGSLRLSCAASGFIFAYYAMGWYRQAPGKERELVAAISSRGGTYYADSVKGRFTISRDNAKNTVYLQMNSLKPEDTAVYYCAAASYTWVSRGYEYWGQGTQVTVSS | high polyreactivity
QVQLVESGGGLVQAGGSLRLSCAASGFIFAYYAMGWYRQAPGKERELVAAISYNGGTTYYADSVKGRFTISRDNAKNTVYLQMNSLKPEDSAVYYCNALVHQTYYDYDYWGQGTQVTVSS | high polyreactivity
QVQLVESGGGLVQAGGSLRLSCAASGFIFAYYTMGWYRQAPGKERELVAAISWSGGTTYYADSVKGRFTISRDNAKNTVYLQMNSLKPEDTAVYYCNAYPKWLGYYEDDYWGQGTQVTVSS | low polyreactivity
QVQLVESGGGLVQAGGSLRLSCAASGFIFDAYAMGWYRQAPGKERELVAAITRGNTYYADSVKGRFTISRDNAKNTVYLQMNSLKPEDTAVYYCAARYWQSYRSQVTHSSTLDYWGQGTQVTVSS | low polyreactivity
QVQLVESGGGLVQAGGSLRLSCAASGFIFDDYAMGWYRQAPGKERELVAAISVSSTNYADSVKGRFTISRDNAKNTVYLQMNSLKPEDTAVYYCAADTYTYFLASYLYGQYDYWGQGTQVTVSS | low polyreactivity
QVQLVESGGGLVQAGGSLRLSCAASGFIFDGNAMGWYRQAPGKERELVAAISSDGGTYYADSVKGRFTISRDNAKNTVYLQMNSLKPEDTAVYYCAAEQTLLYSFGWDEYWGQGTQVTVSS | low polyreactivity
QVQLVESGGGLVQAGGSLRLSCAASGFIFDGYTMGWYRQAPGKERELVAAISRSGGRTYYADSVKGRFTISRDNAKNTVYLQMNSLKPEDTAVYYCAVRYRQYSQTVASDYGYWGQGTQVTVSS | high polyreactivity
QVQLVESGGGLVQAGGSLRLSCAASGFIFDHNARGWYRQAPGKERELVAAITWRGDSTYYADSVKGRFTISRDNAKNTVYLQMNSLKPEDTAVYYCNADAILVYYGKLDYWGQGTQVTVSS | low polyreactivity
QVQLVESGGGLVQAGGSLRLSCAASGFIFDQYAMGWYRQAPGKERELVAAITSGGDTNYADSVKGRFTISRDNAKNTVYFQMNSLKPEDTAVYYCNVDVPGVRFEYWGQGTQVTVSS | low polyreactivity
QVQLVESGGGLVQAGGSLRLSCAASGFIFDRYAMGWYRQAPGKERELVAAISSGGSTYYADSVKGRFTISRDNAKNTVYLQMNSLKPEDTAVYYCAAESWLKFIYEYDYWGQGTQVTVSS | low polyreactivity
QVQLVESGGGLVQAGGSLRLSCAASGFIFDRYAMGWYRQAPGKERELVAAITGSGGSTYYADSVKGRFTISRDNAKNTVYLQMNSLKPEDTAVYYCAAESYVYFALFYVSIPYYYWGQGTQVTVSS | high polyreactivity
QVQLVESGGGLVQAGGSLRLSCAASGFIFDSNAMGWYRQAPGKERELVAAISRSGASTYYADSVKGRFTISRDNAKNTVYLQMNSLKPEDTSVYYCAASVRKIHDRFYYWGQGTQVTVSS | high polyreactivity
QVQLVESGGGLVQAGGSLRLSCAASGFIFDSYAMGWYRPAPGKERELVATITKGGGRTYYADSVKGRFTISRDNAKNTVYLQMNSLKPEDTAVYYCNARGFSRRKGLDYWGQGTQVTVSS | low polyreactivity
QVQLVESGGGLVQAGGSLRLSCAASGFIFDSYAMGWYRQAPGKERELVAAISWSGGRTYYADSVKGRFTISRDNAKYTVYLQMNSLKPEDTAVYYCNVRTKLSSSYDYWGQGTQVTVSS | high polyreactivity
